Laboratory results: PMC3317930, “A Human PrM Antibody That Recognizes a Novel Cryptic Epitope on Dengue E Glycoprotein” (PLoS ONE, 2012)

Assays:
[1] = molecular target: T1, prM protein of the non-mutated prM-E construct (pCMV-prM-E) (Dengue virus 2 strain New Guinea C, UniProt P14340); experiment: Western blot; conditions: one partner purified
T1 construct: also called prM of pCMV-prM-E; source: HEK293-T cells, transfected, in lysate

[2] = molecular target: prM protein of DENV3 (Dengue virus 3, strain H87, UniProt P27915); experiment: Western blot; conditions: one partner purified
[3] = molecular target: T2, envelope (E) protein of DENV3 (Dengue virus 3, strain H87, UniProt P27915); experiment: Western blot; conditions: one partner purified
T2 construct: also called E glycoprotein; source: DENV3-infected Vero cells, in lysate

[4] = molecular target: T3, envelope (E) protein of DENV4 (Dengue virus 4, strain H241, UniProt Q58HT7); experiment: Western blot; conditions: one partner purified
T3 construct: also called E glycoprotein; source: DENV4-infected Vero cells, in lysate

[5] = molecular target: Dengue 2 (DENV2), whole virus (Dengue virus 2, strain New Guinea C (or …, UniProt P14340, strain)); experiment: ELISA; conditions: both partners purified
[6] = molecular target: Dengue 1 (DENV1) strain Hawaii, whole virus (Dengue virus 1, strain Hawaii, UniProt B5AGU1, strain); experiment: ELISA; conditions: both partners purified
[7] = molecular target: Dengue 3 (DENV3) strain H87, whole virus (Dengue virus 3, strain H87, UniProt P27915, strain); experiment: ELISA; conditions: both partners purified
[8] = molecular target: Dengue 4 (DENV4) strain H241, whole virus (Dengue virus 4, strain H241, UniProt Q58HT7, strain); experiment: ELISA; conditions: both partners purified

B1: D29 Fab-IgG (antibody, V domains shown)
VH: QMQLVQSGGGVVQPGRSLRLSCAASGFTFSSYAMHWVRQAPGKGLEWVAGTSYDGSNKYYADSVKGRFTISGDNSKNTVYLQMNSLRAEDTAVYYCARAHSSGWYDAFDIWGQGTTVTVSS
VL: SYVLTQPPSVSVSPGQAASITCSGDKLGDKYAWWYQQKPGQSPVMVIHQDDKRPSGIPERFSGSNSGNTATLTITGTQAMDEADYYCQAWDRTTVVFGGGTKLTVL
notes: source: HEK 293 T cells (Fab from a non-immunized human Fab phage library, converted into human IgG format)
- binding result [1]: binds
- binding result [2]: binds
- binding result [3]: binds
- binding result [4]: binds
- Kd [5]: 0.0869 nM
- Kd [6]: 0.0905 nM
- Kd [7]: 0.114 nM
- Kd [8]: 0.108 nM
